Data on 5 molecules can be found in US9664676B2, “RNA sequences that induce fluorescence of small molecule fluorophores” (Cornell University, priority 2013, dated 2017).

In series [1] the test system is COS-7 cells. Description: Analysis of DFHBI cell permeability. Type of series: in vitro ADME. The note with it: mammalian cells, 20 μM DFHBI. On the procedure: Analysis of DFHBI Cell Permeability: COS-7 cells were transfected with pCDNA-60CGG-Spinach2. 24 h after transfection, cells were imaged in medium supplemented with 25 mM HEPES, 5 mM MgSO4, 1 μg/ml Hoechst 33342 and 20 μM DFHBI. Images were acquired for Hoechst and Spinach2 signals every 5 min for 1 h for 20 cells. All signals were first normalized to area and then normalized to the highest signal for a given nucleus to determine the time for maximal signal to be reached.

Series [2] deals with COS-7 cells. Description: Live cell imaging of (CGG)60-Spinach / (CGG)60-Spinach2 in COS-7 cells. Type of series: cell-based. The note with it: at 8 h, 1 μg/ml. The protocol: Transfection of COS-7 Cells and Live Cell Imaging: COS-7 cells (ATCC-CRL-1651) were cultured and passaged in DMEM supplemented with 50 units of penicillin and 50 μg of streptomycin per milliliter. […] Cells were imaged in CO2-independent medium (Invitrogen) supplemented with L-glutamine. At 30 min-1 h before imaging, medium was supplemented with 25 mM HEPES, 5 mM MgSO4, 1 μg/ml Hoechst 33342 (when appropriate) and 20 μM DFHBI or vehicle. […] Spinach was imaged with a filter cube typically used for fluorescein or EGFP, with a sputter-coated excitation filter 470/40 nm, dichroic mirror 495 nm (long-pass), and emission filter 525/50 (Chroma Technology). DsRed-Max and mCherry were imaged using a filter cube typically used for Texas Red, with a sputter coated excitation filter 560/40 nm and emission filter 630/75 nm (Chroma Technology). Background intensity was subtracted from all pixel intensity measurements. Image analyses were completed with NIS-Elements AR 3.2 (Nikon). Drug treatments were carried out as specified. […] DMSO was added to a final concentration of 0.1% for vehicle treatments. […] After 2 h, the transfection medium was replaced with imaging medium containing DFHBI.

A further series relates to HEK293T cells. Description: Flow cytometry of HEK293T cells expressing 5S rRNA-aptamer fusions with DFHBI-1T. Type of series: cell-based. On the procedure: FIG. 24 illustrates the quantification of the flow cytometry analysis of aptamers expression in mammalian cells. To compare specific aptamers' brightness in mammalian cells, HEK293T cells were transfected with two plasmids: one expressing aptamer (with or without tRNA) fused to 5S rRNA and another expressing mCherry fluorescent protein. Cells were then treated with 40 μM DFHBI-1T and analyzed on FACSAria III instrument in two channels: green (ex=488 nm; em=525±50 nm) and red (ex=561 nm and em=610±20). For quantification, mean fluorescent signal of the non-negative population was calculated and then mean fluorescent signal of the negative population was subtracted from it to assess specific, not background fluorescent signal. Finally, this number was multiplied by the percentage of the non-negative population to provide the total fluorescent signal of the non-negative population. These numbers are plotted on the bar graph above. Where indicated, cells were also pre-treated with 5 mM MgSO4. Error bar indicates robust SD calculated by FlowJo program, used for data analysis.
Imaging 5S-tBroccoli and 5S-t-tdBroccoli: Plasmids were transfected into HEK293T cell using FuGENE HD reagent (Promega) following manufacture's protocol. Cell imaging was carried out as previously described for 5S-Spinach (Paige et al., “RNA Mimics of Green Fluorescent Protein,” Science 333(6042): 642-6 (2011), which is hereby incorporated by reference in its entirety) with DFHBI-1T instead of DFHBI. […]
Flow cytometry was used to quantify average brightness of tRNA. Transfected cells were analyzed in two channels: green (ex=488 nm; em=525±50 nm) and red (ex=561 nm; em=610±20). […] As evidenced from FIG. 14A, 5S-tBroccoli and 5S-tdBroccoli are clearly detectable in the green fluorescence channel and this specific signal appears only upon cells treatment with DFHBI-1T (FIG. 23).
For orientation: A flow cytometer gives signals particle by particle.

Another series relates to E. coli. Nature of the series: Fluorescence measurements of E. coli (colonies, suspensions) expressing aptamers with DFHBI-1T. The series is classed as cell-based, Escherichia coli. The note with it: tRNA fusions, suspension/plate reader, DFHBI-1T. On the procedure: Fluorescence Measurements of E. coli: Fluorescence measurements of E. coli were done in two general ways. To assess fluorescence brightness of bacterial colonies on a plate Acella or LMG194 strains cells were transferred to a new LB/agar dish with respective antibiotic and allowed to grow overnight at 37° C. Typically four to six colonies for the same aptamer were grown on the same plate to provide statistical data. These plates already contained 40 μM DFHBI-1T (or DFHBI) and 0.2% arabinose (in case of LMG194 strain). When Acella strain was used, 1 mM IPTG was added the next morning and incubation was continued for four to six hours more at 37° C. Bacterial colonies were then imaged under ChemiDoc MP imager as described above and images were processed in ImageJ program.
To measure fluorescence of bacterial cell suspensions BL21 Star (DE3) (Life Technologies) strain and pET28c-based expression plasmids were used. This combination provided the strongest signal. Fresh colony was inoculated into LB media with kanamycin and allowed to grow overnight at 37° C. to OD600 0.4. The cells were then induced with addition of 1 mM IPTG for 2-4 h at 37° C. After induction, cells were normalized for cell density and incubated with 400 μM DFHBI-1T. Cells were then measured for total fluorescence using a Genios Pro plate reader at 465 nm excitation and 535 nm emission. All values were normalized for slightly different excitation and emission spectra of Spinach2 and Broccoli.

Series [3] is described as follows: In-gel imaging of tBroccoli and tdBroccoli (DFHBI-1T / SYBR Gold staining). The series is classed as biochemical. On the procedure:
In-Gel Imaging of Spinach-Containing RNAs: Total bacterial RNA was purified using Trizol LS reagent (Life Technologies) following the manufacturer's protocol. Typically, 200-500 ng of total RNA or 50-100 ng of in vitro transcribed RNA was loaded into a well of precast 6% TBE-Urea Gel (Life Technologies) and ran at 270-300 V in 1×TBE buffer. RiboRuler Low Range RNA Ladder (Thermo Scientific) was used as band size standard.
After the gel was run to completion, the gel was washed 3×5 min with water and then stained for 30 min in 10 μM DFHBI or DFHBI-1T in buffer containing 40 mM HEPES pH 7.4, 100 mM KCl, 1 mM MgCl2. Then gel was imaged using a ChemiDoc MP with 470/30 nm excitation and 532/28 nm emission. Next, to see all the RNA in the sample, the gel was again washed 3×5 min with water followed by staining for 30 min with SYBR Gold (or Green) dye (Life Technologies) diluted 1/10000 in TBE buffer. Then gel was imaged under the same instrument using preset SYBR Gold (or Green) channel (302 nm excitation and 590/110 nm emission). Gel bands intensities were quantified in Image Lab 5.0 software (Bio-Rad). The bacterial 5S rRNA band was used for loading normalization.

The nature of series [4]: Fluorescence of aptamers bound to DFHO. Type of series: biochemical. The protocol: To explore this phenomenon further, a library containing over 10 million mutants of this sequence was prepared. Each of the sequences was individually expressed in E. coli bacteria. The bacteria was incubated with the fluorophore DFHO and then sorted based on their fluorescent signal on a fluorescence-activated cell sorting (FACS) instrument. Analysis of the mutations introduced into the 29-1 aptamer allowed prediction of the core sequence necessary for binding DFHO. The possibility that the core binding sequence for DFHO fluorophore is the same as for the DFHBI fluorophore was also considered. The core binding sequence for DFHBI fluorophore is identified in preceding Example 21.

Series [5] is described as follows: In vitro fluorescence activation of DFHBI by 29-1. The series is classed as biochemical. The note with it: bound to DFHBI. From the text: (§1) In Vitro Characterization of Aptamers: dsDNA from the brightest bacterial cells in a library was PCR amplified from eluted plasmids. Truncation, deletion and point mutation mutants were generated from dsDNAs PCR amplified based on respective ssDNA templates (Protein and Nucleic Acid Facility, Stanford University Medical Center). Primers were designed so the PCR product contained T7 promoter sequence. When indicated, dsDNA or ssDNA also contained tRNA scaffold part. PCR products were then purified with PCR purification columns (Qiagen) and in vitro transcribed utilizing AmpliScribe T7-Flash Transcription Kit (Epicenter). RNA was purified using Bio-Spin columns (Bio-Rad), and quantified using both absorbance values and the Quant-iT RiboGreen RNA Assay Kit (Life Technologies).
All in vitro RNA properties were measured in 40 mM HEPES pH 7.4, 100 mM KCl, 1 mM MgCl2 buffer unless specified separately. […]
To measure the fluorescence of aptamer-fluorophore complexes, an approach that overcomes potential confounding effects of incomplete RNA folding was used. The fluorescence of RNA-fluorophore complexes can be measured in either of two ways: using “excess RNA” or “excess fluorophore” (Ponchon et al., “Recombinant RNA Technology: the tRNA Scaffold,” Nat. Methods 4(7): 571-6 (2007), which is hereby incorporated by reference in its entirety). […]

Series [6] can be described thus: Folding measurements with DFHBI-1T. The series is classed as physicochemical. The settings on record: in vitro folding assay. The protocol:
Briefly, fluorescence intensity of two solutions were compared: the one having excess of the dye and limiting amount of RNA and the other with excess of RNA and limiting amount of the dye. 1 μM of 1T (or RNA) and 20 μM of RNA (or 1T) was used. Signal from the first condition (limiting RNA) was divided by the signal from the second condition (limiting dye) to determine the fraction folded. To measure folding in a context of different flanking sequences RNA was generated from separate dsDNA fragments. These fragments were PCR amplified to have β-actin, 5S rRNA and 7SK RNA sequences on either or both sides of Broccoli. The folding assay then proceeded as described above.
(§2) To measure the fluorescence of aptamer-fluorophore complexes, an approach that overcomes potential confounding effects of incomplete RNA folding was used. The fluorescence of RNA-fluorophore complexes can be measured in either of two ways: using “excess RNA” or “excess fluorophore” (Ponchon et al., “Recombinant RNA Technology: the tRNA Scaffold,” Nat. Methods 4(7): 571-6 (2007), which is hereby incorporated by reference in its entirety). In an “excess RNA” experiment enough RNA was added to ensure that all the fluorophore (e.g. 1 μM) is bound to the RNA even if a sizeable portion of the RNA is unfolded. As a result, one can be confident that a 1 μM RNA-fluorophore complex is present, and one can therefore calculate the “molar brightness,” the fluorescence of a specific concentration of RNA-fluorophore complex independent of RNA folding. In the case of excess fluorophore experimental conditions were reversed and 1 μM of RNA was used with a vast excess of the fluorophore. In this case, the amount of RNA-fluorophore complex is highly dependent on the amount of RNA that is folded.

Series [7] is described as follows: In vitro fluorescence activation of DFHBI-1T by 29-1 and truncation mutants. Type of series: biochemical. The settings on record: bound to DFHBI-1T.
Excerpt: as §1
All in vitro RNA properties were measured in 40 mM HEPES pH 7.4, 100 mM KCl, 1 mM MgCl2 buffer unless specified separately. All values presented are averaging of at least three independent experiments, error bars are standard deviations.
as §2

*1 amine or outer side, *2 acyl side, *3 side chain or, on linkers, in order; H or OH if unused. Where a SMILES comes first, the peptide text is derived from it. Bridges are numbered along the chain shown (N, C = ends). Roman numbers before positions name the chains, in order. [ ]: non-standard residue; d: D form. Actinocin(9to1) = Cc1c2oc3c(C)ccc(C(=O)[*:1])c3nc-2c(C(=O)[*:2])c(N)c1=O; NMeV = CN[C@H](C(=O)O)C(C)C; Sar = CNCC(=O)O

As to `CC1=NC(=Cc2cc(F)c(O)c(F)c2)C(=O)N1C` [DFHBI, 4-(3,5-difluoro-4-hydroxybenzylidene)-1,2-dimethyl-imidazol-5-one], the “time to maximal fluorescence (ability to enter cells)” value with COS-7 cells [1] is listed as around 30 min.

As to `Cc1c2oc3c(C)ccc(C(=O)N[C@@H]4C(=O)N[C@H](C(C)C)C(=O)N5CCC[C@H]5C(=O)N(C)CC(=O)N(C)[C@@H](C(C)C)C(=O)O[C@@H]4C)c3nc-2c(C(=O)N[C@@H]2C(=O)N[C@H](C(C)C)C(=O)N3CCC[C@H]3C(=O)N(C)CC(=O)N(C)[C@@H](C(C)C)C(=O)O[C@@H]2C)c(N)c1=O` [actinomycin D] (I: T[dV]P[Sar][NMeV] / II: T[dV]P[Sar][NMeV]; ester I:1-I:C, II:1-II:C; linker I:N-II:N via Actinocin(9to1)), the “cytotoxicity in COS-7 cells” value in the series with COS-7 cells [2] is listed as “cytotoxicity was observed”.

B1: dBroccoli: dimeric Broccoli, SEQ ID NO: 12 (nucleic acid)
chain: GAGACGGUCGGGUCCAUCUGAGACGGUCGGGUCCAGAUAUUCGUAUCUGUCGAGUAGAGUGUGGGCUCAGAUGUCGAGUAGAGUGUGGGCUC
modifications: listed as RNA, chemistry not fully specified
Consider B1, for which the “detection in HEK293T cells of 5S fusions without tRNA scaffold” value in the series with HEK293T cells (flow cytometry) is “can be detected in cells”. Moreover, in the series on E. coli, the “fluorescence of aptamer-expressing E. coli cells” value was “approximately twice as fluorescent as cells expressing Broccoli”. Further, in series [3] (in vitro transcribed tBroccoli and tdBroccoli in PAGE gel), the “fluorescence compared to monomeric Broccoli” value is “almost twice the fluorescence as the monomeric Broccoli”.

B2: tdBroccoli: dBroccoli in tRNA scaffold, SEQ ID NO: 40 (nucleic acid)
chain: GCCCGGATAGCTCAGTCGGTAGAGCAGCGGAGACGGTCGGGTCCATCTGAGACGGTCGGGTCCAGATATTCGTATCTGTCGAGTAGAGTGTGGGCTCAGATGTCGAGTAGAGTGTGGGCTCCGCGGGTCCAGGGTTCAAGTCCCTGTTCGGGCGCCA
modifications: tdBroccoli
For B2, in the series with HEK293T cells (5S fusions, HEK293T, 40 μM DFHBI-1T), the “brighter than tBroccoli (mean fluorescence intensity of the green population)” value is 70%. In addition, in [3] (gel band intensity, normalized to molecular weight), the “fold more fluorescent than tBroccoli” value is around 1.8 fold.

B3: 29-1: 99-nucleotide RNA aptamer from SELEX-FACS, SEQ ID NO: 3 (nucleic acid)
chain: GGAGACGCAACUGAAUGAAAUGGUGAAGGAGACGGUCGGGUCCAGGCACAAAAAUGUUGCCUGUUGAGUAGAGUGUGGGCUCCGUAACUAGUCGCGUCAC
modifications: listed as RNA, chemistry not fully specified
As for B3, in [4], the “effect on DFHO fluorescence” value is reported as “significantly enhancing its fluorescence”. Besides, the results for the “emission (em)” value in series [5] and in series [7] were 501 nm and 507 nm, respectively. Also, the “excitation (ex)” value in series [5] is 450 nm; in series [7], 472 nm. In [6], this molecule displayed a percent folded of 81%.
